The values that follow come from patent publication US20220042033A1, “COMPOSITION AND METHOD FOR CONFERRING AND/OR ENHANCING TOLERANCE AGAINST HERBICIDES BY USING VARIANTS OF PPO” (FarmHannong Co., Ltd., priority 2017, published 2022).

Substitutions are numbered along the chain they refer to. Numbers in names are those of the source.

The subject of the experiment is ApPPO1. The experiment in a line: Herbicide tolerance test of ApPPO1 wild type and variants in PPO-deficient E. coli BT3(ΔPPO), growth on herbicide-containing LB agar. The experiment is classed as cell-based, Auxenochlorella protothecoides. The following applies: relative to ApPPO1 WT, dark; for Herbicide tolerance, flumioxazin: up to 100 μM (FIGS. 7-12); for Herbicide tolerance, tiafenacil: up to 200 μM (FIGS. 7-12); for Herbicide tolerance, sulfentrazone: up to 400 μM (FIGS. 7-12). The protocol:
Then, the extent of tolerance was evaluated.

B1: V213C + Y422T: ApPPO1 (SEQ ID NO: 1) variant (protein)
chain: MPFTHLKPLNRLLGSPRARHPHVAPQAVSVTNTSTTRPGGRSSAPGIPGDAEYDVVIVGAGISGLTTAQALAKQYSDAVPRLLVTEARDCVGGNIITRRDGGYQWEEGPNSFQPSDAVLRAAVDAGVADRLVLGDPKAPRYVYWGGRLRATPSGPDVLTFDLLSLWGKLRAGLGAAGFKAPLPEREESVKEFVTRNLGEEVFQRLIEPFCSGCYAGDPAKLSMKAAFGKVYDLEKGGGSIVGGVLALMKARKQKPPEPRPADLPPKPKGQTVGSFDKGLVTLPSAIAEELGDRVVTGWKLESIDRSGDRFQLTYDTPQGRKKVSARSVALTVPAYTAASLLESRFPKLGKALSSIYYPPVASVALSYPETAILPERLGSDGHLAGFGQLHPRTQGVTTLGTIYASSLFPGRVPEGKVLLLSTFGGATNTRVATMPHGEIVSQVDKDLRKMLIRSDAESPHTVNVTVWPRAIPQFNVGHTDLIQEAKDDLASQGWQGLHLGGNYVAGVALGKCMEAGYKQAAELASHVKSLAT
modifications: Synthetic (Protoporphyrinogen IX oxidase (ApPPO1) of Auxenochlorella protothecoides)
Consider B1, for which the “Herbicide tolerance, flumioxazin” value is on record as “+++++ (more than 10,000 fold higher tolerance)”; the “Herbicide tolerance, tiafenacil” value is reported as “+++++ (more than 10,000 fold higher tolerance)”; the “Herbicide tolerance, sulfentrazone” value is “++++ (1,000-9,999 fold higher tolerance)”.

B2: R140A + V213C + A215C + Y422I: ApPPO1 (SEQ ID NO: 1) variant (protein)
chain: B1 chain with R140A, A215C, T422I
modifications: Synthetic (Protoporphyrinogen IX oxidase (ApPPO1) of Auxenochlorella protothecoides)
As for B2, the “Herbicide tolerance, flumioxazin” value is listed as “+++++ (more than 10,000 fold higher tolerance)”; the “Herbicide tolerance, tiafenacil” value is on record as “+++++ (more than 10,000 fold higher tolerance)”; the “Herbicide tolerance, sulfentrazone” value is given as “++++ (1,000-9,999 fold higher tolerance)”.

B3: R140A + A215C + Y422I: ApPPO1 (SEQ ID NO: 1) variant (protein)
chain: B1 chain with R140A, C213V, A215C, T422I
modifications: Synthetic (Protoporphyrinogen IX oxidase (ApPPO1) of Auxenochlorella protothecoides)
As to B3, the “Herbicide tolerance, flumioxazin” value is reported as “+++++ (more than 10,000 fold higher tolerance)”; the “Herbicide tolerance, tiafenacil” value is listed as “+++++ (more than 10,000 fold higher tolerance)”; the “Herbicide tolerance, sulfentrazone” value is on record as “++++ (1,000-9,999 fold higher tolerance)”.

B4: R140A + V213C + Y422M: ApPPO1 (SEQ ID NO: 1) variant (protein)
chain: B1 chain with R140A, T422M
modifications: Synthetic (Protoporphyrinogen IX oxidase (ApPPO1) of Auxenochlorella protothecoides)
B4: the “Herbicide tolerance, flumioxazin” value was “+++++ (more than 10,000 fold higher tolerance)”; the “Herbicide tolerance, tiafenacil” value is recorded as “+++++ (more than 10,000 fold higher tolerance)”; the “Herbicide tolerance, sulfentrazone” value is “++++ (1,000-9,999 fold higher tolerance)”.

B5: R140A + Y422I: ApPPO1 (SEQ ID NO: 1) variant (protein)
chain: B1 chain with R140A, C213V, T422I
modifications: Synthetic (Protoporphyrinogen IX oxidase (ApPPO1) of Auxenochlorella protothecoides)
Take B5: the “Herbicide tolerance, flumioxazin” value is recorded as “+++++ (more than 10,000 fold higher tolerance)”; the “Herbicide tolerance, tiafenacil” value is on record as “+++++ (more than 10,000 fold higher tolerance)”; the “Herbicide tolerance, sulfentrazone” value is given as “++++ (1,000-9,999 fold higher tolerance)”.

B6: V213C + A215L + Y422M: ApPPO1 (SEQ ID NO: 1) variant (protein)
chain: B1 chain with A215L, T422M
modifications: Synthetic (Protoporphyrinogen IX oxidase (ApPPO1) of Auxenochlorella protothecoides)
Consider B6, for which the “Herbicide tolerance, flumioxazin” value was “+++++ (more than 10,000 fold higher tolerance)”; the “Herbicide tolerance, tiafenacil” value is given as “+++++ (more than 10,000 fold higher tolerance)”; the “Herbicide tolerance, sulfentrazone” value is “++++ (1,000-9,999 fold higher tolerance)”.

B7: R140A + V213C + A215L + Y422M: ApPPO1 (SEQ ID NO: 1) variant (protein)
chain: B1 chain with R140A, A215L, T422M
modifications: Synthetic (Protoporphyrinogen IX oxidase (ApPPO1) of Auxenochlorella protothecoides)
For the molecule B7, the “Herbicide tolerance, flumioxazin” value was “+++++ (more than 10,000 fold higher tolerance)”; the “Herbicide tolerance, tiafenacil” value is given as “+++++ (more than 10,000 fold higher tolerance)”; the “Herbicide tolerance, sulfentrazone” value is given as “++++ (1,000-9,999 fold higher tolerance)”.

B8: R140A + V213C + Y422I: ApPPO1 (SEQ ID NO: 1) variant (protein)
chain: B1 chain with R140A, T422I
modifications: Synthetic (Protoporphyrinogen IX oxidase (ApPPO1) of Auxenochlorella protothecoides)
For B8, the “Herbicide tolerance, flumioxazin” value is listed as “+++++ (more than 10,000 fold higher tolerance)”; the “Herbicide tolerance, tiafenacil” value is on record as “+++++ (more than 10,000 fold higher tolerance)”; the “Herbicide tolerance, sulfentrazone” value is “++++ (1,000-9,999 fold higher tolerance)”.

B9: R140A + A215L + Y422M: ApPPO1 (SEQ ID NO: 1) variant (protein)
chain: B1 chain with R140A, C213V, A215L, T422M
modifications: Synthetic (Protoporphyrinogen IX oxidase (ApPPO1) of Auxenochlorella protothecoides)
In the case of B9, the “Herbicide tolerance, flumioxazin” value is “+++++ (more than 10,000 fold higher tolerance)”; the “Herbicide tolerance, tiafenacil” value is “+++++ (more than 10,000 fold higher tolerance)”; the “Herbicide tolerance, sulfentrazone” value is recorded as “++++ (1,000-9,999 fold higher tolerance)”.

B10: A215C + Y422I: ApPPO1 (SEQ ID NO: 1) variant (protein)
chain: B1 chain with C213V, A215C, T422I
modifications: Synthetic (Protoporphyrinogen IX oxidase (ApPPO1) of Auxenochlorella protothecoides)
Turning to B10, the “Herbicide tolerance, flumioxazin” value is reported as “+++++ (more than 10,000 fold higher tolerance)”; the “Herbicide tolerance, tiafenacil” value was “+++++ (more than 10,000 fold higher tolerance)”; the “Herbicide tolerance, sulfentrazone” value was “++++ (1,000-9,999 fold higher tolerance)”.

B11: A215L + Y422I: ApPPO1 (SEQ ID NO: 1) variant (protein)
chain: B1 chain with C213V, A215L, T422I
modifications: Synthetic (Protoporphyrinogen IX oxidase (ApPPO1) of Auxenochlorella protothecoides)
As to B11, the “Herbicide tolerance, flumioxazin” value was “++++ (1,000-9,999 fold higher tolerance)”; the “Herbicide tolerance, tiafenacil” value is recorded as “++++ (1,000-9,999 fold higher tolerance)”; the “Herbicide tolerance, sulfentrazone” value is recorded as “++++ (1,000-9,999 fold higher tolerance)”.

B12: V213C + A215C + Y422I: ApPPO1 (SEQ ID NO: 1) variant (protein)
chain: B1 chain with A215C, T422I
modifications: Synthetic (Protoporphyrinogen IX oxidase (ApPPO1) of Auxenochlorella protothecoides)
For B12, the “Herbicide tolerance, flumioxazin” value is listed as “+++++ (more than 10,000 fold higher tolerance)”; the “Herbicide tolerance, tiafenacil” value is given as “+++++ (more than 10,000 fold higher tolerance)”; the “Herbicide tolerance, sulfentrazone” value is “++++ (1,000-9,999 fold higher tolerance)”.

B13: A215L + Y422T: ApPPO1 (SEQ ID NO: 1) variant (protein)
chain: B1 chain with C213V, A215L
modifications: Synthetic (Protoporphyrinogen IX oxidase (ApPPO1) of Auxenochlorella protothecoides)
For the molecule B13, the “Herbicide tolerance, flumioxazin” value is recorded as “+ (1-9 fold higher tolerance)”; the “Herbicide tolerance, tiafenacil” value is reported as “+ (1-9 fold higher tolerance)”; the “Herbicide tolerance, sulfentrazone” value is “++++ (1,000-9,999 fold higher tolerance)”.

B14: A215C + Y422T: ApPPO1 (SEQ ID NO: 1) variant (protein)
chain: B1 chain with C213V, A215C
modifications: Synthetic (Protoporphyrinogen IX oxidase (ApPPO1) of Auxenochlorella protothecoides)
Take B14: the “Herbicide tolerance, flumioxazin” value is reported as “+++ (100-999 fold higher tolerance)”; the “Herbicide tolerance, tiafenacil” value is listed as “+++ (100-999 fold higher tolerance)”; the “Herbicide tolerance, sulfentrazone” value was “+++ (100-999 fold higher tolerance)”.

B15: R140A + Y422T: ApPPO1 (SEQ ID NO: 1) variant (protein)
chain: B1 chain with R140A, C213V
modifications: Synthetic (Protoporphyrinogen IX oxidase (ApPPO1) of Auxenochlorella protothecoides)
Turning to B15, the “Herbicide tolerance, flumioxazin” value is recorded as “++++ (1,000-9,999 fold higher tolerance)”; the “Herbicide tolerance, tiafenacil” value is given as “++++ (1,000-9,999 fold higher tolerance)”; the “Herbicide tolerance, sulfentrazone” value is “+++ (100-999 fold higher tolerance)”.
